Test results: US20200362051A1 (CRESCENDO BIOLOGICS, published 2020)
One block for each binder: values may come before it.

Tests used:
[1] = target: T1, human PSMA expressed on cells (human, UniProt Q04609 1-750); assay: dual-binding cell ELISA: CHO-PSMA cells, bound construct detected with 1 nM CD137huFc and anti-huFc-HRP; average ± SD, n=3
T1 construct: Type II membrane glycoprotein; also called CHO human PSMA; CHO PSMA
Protocol: (§1) Dual target engagement of CD137 and PSMA by the bispecific molecules was assessed using an ELISA format and by flow cytometry with T cells. For ELISA, CHO-PSMA cells (20000/well) were seeded into 96 well plates (Greiner cat no. 353872) in Hams F12 supplemented with L-Glutamine+Blasticidin+Tetracycline and incubated at 37° C. with 5% CO₂ overnight. All subsequent steps were performed at room temperature and included washes with PBS between each step. Plates were blocked with PBS/0.1% BSA for 1 hour then serially diluted Humabody® VH were added and allowed to bind for 1 hour. Following removal of unbound VH, 1 nM CD137huFc (Acro Biosystems cat no. 41B-H5258) was added to the wells and incubated for 1 hour. A 1:3000 dilution of Anti-huFc-HRP (Jackson ImmunoResearch cat no. 109-035-098) was subsequently added for 1 hour and plates developed by addition of TMB. The reaction was stopped by addition of 0.5M sulphuric acid and plates read on BMG PheraStar at Absorbance 450 nm. […] Human CD8+ T cells pre-stimulated for 48 hours with PMA/ionomycin were washed with FACS buffer (PBS supplemented with 10% human serum and 0.05% sodium azide) by centrifugation. Serially diluted bispecific and trispecific Humabody VH construct were added to the cells for 1 hour on ice. Plates were washed with FACS buffer then detection mix containing 5 nM biotinylated-PSMA, 20 nM Streptavidin AlexaFluor488 and Live/Dead NearIR cell stain dilution added. Plates were incubated at 4° C. for 1 hour then washed twice with FACS buffer by centrifugation. Cells were fixed by addition 1× BD Cell fix solution, then washed twice with PBS by centrifugation and the cell pellets resuspended in PBS. Fluorescence was measured in the RL2-H channels (Live/Dead stain) and BL1-H channel (AlexaFluor488 stain) on the iQue Plus Screener (IntelliCyt). The bispecific and trispecific molecules were able to simultaneously bind human CD8+ T cells and PSMA protein.

[2] = target: T2, human CD137 expressed on cells (human, UniProt Q07011 24-255); assay: dual-binding flow cytometry: pre-stimulated human CD8+ T cells, bound construct detected with 5 nM biotinylated-PSMA and streptavidin-AlexaFluor488; average ± SD, at least 6 donors
T2 construct: Whole entry with its signal peptide; also called 4-1BB; TNFRS9
T2 sequence (Q07011 24-255 limits assumed): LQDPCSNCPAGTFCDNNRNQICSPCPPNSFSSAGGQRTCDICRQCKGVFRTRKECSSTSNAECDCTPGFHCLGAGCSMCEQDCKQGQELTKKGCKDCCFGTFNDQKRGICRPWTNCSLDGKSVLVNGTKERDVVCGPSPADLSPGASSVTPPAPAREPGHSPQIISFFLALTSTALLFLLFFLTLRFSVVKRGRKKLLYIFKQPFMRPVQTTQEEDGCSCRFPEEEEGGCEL
Protocol: as §1, with “Serially diluted bispecific and trispecific Humabody VH construct were added to the cells for 1 hour on ice. Plates were washed with FACS buffer then detection mix containing 5 nM biotinylated-PSMA, 20 nM Streptavidin AlexaFluor488 and Live/Dead NearIR cell stain dilution added. Plates were incubated at 4° C. for 1 hour then washed twice with FACS buffer by centrifugation. Cells were fixed by addition 1× BD Cell fix solution, then washed twice with PBS by centrifugation and the cell pellets resuspended in PBS.” left out, “The bispecific and trispecific molecules were able to simultaneously bind human CD8+ T cells and PSMA protein.” left out

[3] = target: T3, cynomolgus PSMA expressed on CHO cells (cynomolgus, UniProt A0A2K5VNZ0 1-750); assay: FMAT, CHO cynomolgus PSMA cells, detection with CD137huFc and anti human Fc-Alexa Fluor-488; n=3
T3 construct: whole, on cells; also called CHO cynomolgus PSMA cells

[4] = target: T4, rhesus CD137-human IgG1 Fc tagged protein (rhesus; human, UniProt F6W5G6 24-186); assay: SPR (Biacore T200), single cycle kinetics, rhesus CD137-Fc captured on Protein G chip, 25 C, 1:1 fit
T4 construct: also called rhesus CD137Fc; rhesus CD137Fc recombinant protein
T4 sequence: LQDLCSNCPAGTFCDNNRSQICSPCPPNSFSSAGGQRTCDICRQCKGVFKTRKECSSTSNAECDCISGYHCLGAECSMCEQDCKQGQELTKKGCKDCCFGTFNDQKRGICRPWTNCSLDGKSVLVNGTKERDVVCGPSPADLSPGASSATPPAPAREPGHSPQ
Protocol: (§2) The Biacore T200 instrument was used to study the interaction between VH with human and rhesus CD137-human IgG1 Fc tagged protein by surface plasmon resonance (SPR). Single cycle kinetics assays used to evaluate the kinetics and affinity of the interaction. Experiments were performed at 25° C. in HBS-EP+ assay buffer with a flow rate of 30 μl/minute. A Protein G chip was used to capture the Fc tagged recombinant CD137 diluted to 2 μg/ml to one of the flow cells over 7 seconds. A second flow cell without any captured CD137 was used as the reference cell. A five point, three-fold dilution series of VH was made with a top concentration of 60 nM. The binding kinetics were followed by flowing these over the chip surface. The contact time for each of the binding steps was 180 seconds and the dissociation step was 1800 and 3600 seconds for rhesus and human CD137 respectively. After each run, the sensors were regenerated with glycine pH 1.5 to remove the captured CD137. The data was fitted to a 1:1 binding model after double reference subtraction using the Biacore T200 Evaluation software.

[5] = target: T5, human CD137-human Fc chimeric protein (Acro Biosystems cat no. 41B-H5258) (human, UniProt Q07011 24-186); assay: dual binding cell based ELISA: serially diluted VH on plated CHO human PSMA cells, then 1 nM CD137huFc, detection with anti human Fc-HRP, absorbance 450 nm
T5 construct: Bought protein; also called CD137-Fc tag protein; CD137huFc; not shown: human IgG1 Fc
Protocol: Association 1—Binding of the trispecific molecule to CD137Fc captured on protein G biosensors. Association 2—binding of Human serum Albumin, Association 3—Binding of PSMA in the presence of Human serum albumin to minimise HSA dissociation. […] Dual target engagement of CD137 and PSMA by the bispecific molecules was assessed using an ELISA format and by flow cytometry with T cells. For ELISA, CHO-PSMA cells (20000/well) were seeded into 96 well plates (Greiner cat no. 353872) in Hams F12 supplemented with L-Glutamine+Blasticidin+Tetracycline and incubated at 37° C. with 5% CO₂ overnight. All subsequent steps were performed at room temperature and included washes with PBS between each step. Plates were blocked with PBS/0.1% BSA for 1 hour then serially diluted Humabody® VH were added and allowed to bind for 1 hour. Following removal of unbound VH, 1 nM CD137huFc (Acro Biosystems cat no. 41B-H5258) was added to the wells and incubated for 1 hour. A 1:3000 dilution of Anti-huFc-HRP (Jackson ImmunoResearch cat no. 109-035-098) was subsequently added for 1 hour and plates developed by addition of TMB. The reaction was stopped by addition of 0.5M sulphuric acid and plates read on BMG PheraStar at Absorbance 450 nm. […] Fluorescence was measured in the RL2-H channels (Live/Dead stain) and BL1-H channel (AlexaFluor488 stain) on the iQue Plus Screener (IntelliCyt). […]

[6] = target: T4, rhesus CD137-human IgG1 Fc tagged …; assay: SPR (Biacore T200), single cycle kinetics, rhesus CD137-Fc captured on Protein G chip, 25 C, 1:1 fit; average ± SD
Protocol: as §2

T1 sequence (Q04609 whole entry): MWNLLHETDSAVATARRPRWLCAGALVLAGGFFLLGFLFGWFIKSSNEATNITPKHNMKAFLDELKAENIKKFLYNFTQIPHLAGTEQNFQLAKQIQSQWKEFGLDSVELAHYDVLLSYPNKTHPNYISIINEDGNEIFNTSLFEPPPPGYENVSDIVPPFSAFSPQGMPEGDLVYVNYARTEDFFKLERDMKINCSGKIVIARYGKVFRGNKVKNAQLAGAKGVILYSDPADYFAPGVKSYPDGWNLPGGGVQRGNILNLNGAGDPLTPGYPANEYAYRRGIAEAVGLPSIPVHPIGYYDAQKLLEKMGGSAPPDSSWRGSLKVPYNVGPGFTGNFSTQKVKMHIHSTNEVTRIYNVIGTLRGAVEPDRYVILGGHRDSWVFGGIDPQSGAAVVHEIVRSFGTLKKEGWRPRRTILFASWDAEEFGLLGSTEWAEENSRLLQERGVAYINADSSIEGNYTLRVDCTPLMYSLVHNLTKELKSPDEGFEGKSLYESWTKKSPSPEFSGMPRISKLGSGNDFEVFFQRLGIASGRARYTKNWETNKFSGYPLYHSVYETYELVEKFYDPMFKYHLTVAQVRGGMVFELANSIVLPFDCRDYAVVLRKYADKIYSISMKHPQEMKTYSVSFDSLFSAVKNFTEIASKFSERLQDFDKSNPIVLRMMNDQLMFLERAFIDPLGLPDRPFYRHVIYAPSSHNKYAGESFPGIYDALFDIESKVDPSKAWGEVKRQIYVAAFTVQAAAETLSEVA

B2: 4.1-6GS-1.113 (bispecific antibody)
chain: EVQLVESGGGVVQPGRSLRLSCAASGFSFSGYGMHWVRQAPGKGLEWVAYISYDGSNKYYADSVKGRFTISRDNSKNTLYLQMNSLRAEDTAVYYCAKDPAWGLRLGESSSYDFDIWGQGTMVTVSSGGGGSGGGGSGGGGSGGGGSGGGGSGGGGSEVQLVESGGGLVQPGGSLRLSCAASGFTLSNYWMNWVRQAPGKGLEWVANINQDGSERYYVDSVKGRFTISRDNAKNSLYLQMNSLRAEDTAVYYCARGGEGYGVDHYGLDVSGQGTTVTVSS
notes: the tested construct may be that one
EC50 [2]: 1.3 nM | EC50 [1]: 0.57 nM

B4: Humabody VH 4.1 (VHH)
VHH: EVQLVESGGGVVQPGRSLRLSCAASGFSFSGYGMHWVRQAPGKGLEWVAYISYDGSNKYYADSVKGRFTISRDNSKNTLYLQMNSLRAEDTAVYYCAKDPAWGLRLGESSSYDFDIWGQGTMVTVSS
binding result [5]: no binding (tested: 1e-7 M (log10 -7))

B5: Humabody 1.113 (VHH)
VHH: EVQLVESGGGLVQPGGSLRLSCAASGFTLSNYWMNWVRQAPGKGLEWVANINQDGSERYYVDSVKGRFTISRDNAKNSLYLQMNSLRAEDTAVYYCARGGEGYGVDHYGLDVSGQGTTVTVSS
Kd [6]: 0.27 nM | koff [6]: 0.00028 s⁻¹ | kon [6]: 1.1e+06 M⁻¹ s⁻¹

Further lines, results first:

EC50 [1]: 1.1 nM
B1: 4.1-6GS-VH HSA 6GS-1.113-4GS (bispecific antibody)
chain: EVQLVESGGGVVQPGRSLRLSCAASGFSFSGYGMHWVRQAPGKGLEWVAYISYDGSNKYYADSVKGRFTISRDNSKNTLYLQMNSLRAEDTAVYYCAKDPAWGLRLGESSSYDFDIWGQGTMVTVSSGGGGSGGGGSGGGGSGGGGSGGGGSGGGGSEVQLVESGGGLVQPGRSLRLSCAASGFTFHHYAMHWVRQAPGKGLEWVSGISWNGNKITYADSVKGRFTISRDNAKNSLYLQMNSLRAEDTALYYCVRDSSLFIVGAPTFEHWGRGTLVTVSSGGGGSGGGGSGGGGSGGGGSGGGGSGGGGSEVQLVESGGGLVQPGGSLRLSCAASGFTLSNYWMNWVRQAPGKGLEWVANINQDGSERYYVDSVKGRFTISRDNAKNSLYLQMNSLRAEDTAVYYCARGGEGYGVDHYGLDVSGQGTTVTVSSGGGGSGGGGSGGGGSGGGGS
notes: Trispecific single-chain fusion of three VH domains (PSMA, human serum albumin, CD137)

EC50 [3]: 0.57 nM | Kd [4]: 0.12 nM | koff [4]: 5.2e-05 s⁻¹ | kon [4]: 440000 M⁻¹ s⁻¹ | EC50 [1]: 2.2 nM
B3: 4.1-6GS-1.113-6GS-VH (HSA)-4GS (bispecific antibody)
chain: EVQLVESGGGVVQPGRSLRLSCAASGFSFSGYGMHWVRQAPGKGLEWVAYISYDGSNKYYADSVKGRFTISRDNSKNTLYLQMNSLRAEDTAVYYCAKDPAWGLRLGESSSYDFDIWGQGTMVTVSSGGGGSGGGGSGGGGSGGGGSGGGGSGGGGSEVQLVESGGGLVQPGGSLRLSCAASGFTLSNYWMNWVRQAPGKGLEWVANINQDGSERYYVDSVKGRFTISRDNAKNSLYLQMNSLRAEDTAVYYCARGGEGYGVDHYGLDVSGQGTTVTVSSGGGGSGGGGSGGGGSGGGGSGGGGSGGGGSEVQLVESGGGLVQPGRSLRLSCAASGFTFHHYAMHWVRQAPGKGLEWVSGISWNGNKITYADSVKGRFTISRDNAKNSLYLQMNSLRAEDTALYYCVRDSSLFIVGAPTFEHWGRGTLVTVSSGGGGSGGGGSGGGGSGGGGS
notes: Trispecific single-chain fusion of three VH domains (PSMA, CD137, human serum albumin)
